For this experiment, the target named is GST-K15P cytoplasmic domain (aa 347-489) (Kaposi's sarcoma herpesvirus (KSHV, HHV-8)) (UniProt Q9QR69). The experiment is described as follows: SPR; Biacore X100; GST-K15P cytoplasmic tail amine-coupled to a CM4 chip (207 RU); His-tagged PLCγ2 cSH2 wt or SB injected at 1.5, 3, 6, 12, 24 nM, single cycle kinetics, 30 μl/min, HBS-EP buffer pH 7.4. (In SPR one partner is held on a chip, and binding of the other changes the refractive index at the surface.)

Turning to “His-tagged PLCγ2 cSH2 S677V/R695L superbinder, purified from E. coli (domain or fragment)”, the Kd (as a rule, the equilibrium constant for the complex coming apart) was 3.8 nM. With “His-tagged PLCγ2 cSH2 domain wt, purified from E. coli (from UniProt P16885 1-1265) (domain or fragment)” the figure was 5.8 nM.
